In patent US20120316071A1 (published 2012):

Legend:
[1] = molecular target: T1, rHuman CD44/Fc Chimera, CF (R&D Systems Cat#3660-CD) (human, UniProt P16070 21-220); test: ECL Multispot (MSD), antigen spotted; Fab 500 (µM); blank 439
T1 construct: Bought recombinant protein; Fc part of the bought chimera not given

[2] = molecular target: T2, rHuman Erythropoietin R/Fc Chimera, CF (R&D Systems Cat#963-ER) (human, UniProt P19235 25-250); test: as above
T2 construct: Bought recombinant protein; also called EPO R; EPO R/Fc; Fc part of the bought chimera not given
T2 sequence (looked up): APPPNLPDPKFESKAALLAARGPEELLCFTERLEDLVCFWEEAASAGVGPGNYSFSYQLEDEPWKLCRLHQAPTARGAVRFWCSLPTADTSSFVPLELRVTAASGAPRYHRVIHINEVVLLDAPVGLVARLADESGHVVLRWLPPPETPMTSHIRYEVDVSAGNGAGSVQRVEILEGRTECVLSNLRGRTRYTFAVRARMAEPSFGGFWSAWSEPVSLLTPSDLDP

[3] = molecular target: T3, rHuman ErbB2/Fc Chimera, CF (R&D Systems Cat#1129-ER) (human, UniProt P04626 23-652); test: as above
T3 construct: Bought recombinant protein; Fc part of the bought chimera not given

[4] = molecular target: T4, Recombinant Human DLL4 (R&D Systems Cat#1506-D4/CF) (human, UniProt Q9NR61 27-529); test: as above
T4 construct: Bought recombinant protein; also called delta-like protein 4; rHuman DLL4

[5] = molecular target: T5, rHuman HGF R/c-MET/Fc Chimera, CF (R&D Systems Cat#358-MT/CF) (human, UniProt P08581 25-932); test: as above
T5 construct: Bought recombinant protein; also called HGF R/Fc; Fc part of the bought chimera not given

[6] = molecular target: T6, rHuman P-Cadherin/Fc Chimera, CF (R&D Systems Cat#861-PC) (human, UniProt P22223 108-654); test: as above
T6 construct: Bought recombinant protein; Fc part of the bought chimera not given

[7] = molecular target: T7, rHuman ErbB2/Fc Chimera, CF (R&D Systems Cat#1129-ER) (human, UniProt P04626 23-652); test: MSD multispot ECL, antigen spotted on plate, Fab 1410 nM; blank spot 709
T7 construct: Bought from R&D Systems; also called human epidermal growth factor 2 receptor (ErbB2); not shown: Fc of the bought chimera

[8] = molecular target: T8, rHuman HGF R/c-MET/Fc Chimera, CF (R&D Systems Cat#358-MT/CF) (human, UniProt P08581 25-932); test: as above
T8 construct: Bought from R&D Systems; also called HGF R/Fc; hepatocyte growth factor receptor (HGF R/c-Met); not shown: Fc of the bought chimera

[9] = molecular target: T9, Recombinant Human DLL4 (R&D Systems Cat#1506-D4/CF) (human, UniProt Q9NR61 27-524); test: as above
T9 construct: Bought from R&D Systems; also called rHuman DLL4; delta-like protein 4

[10] = molecular target: T10, rHuman Erythropoietin R/Fc Chimera, CF (R&D Systems Cat#963-ER) (human, UniProt P19235 25-250); test: as above
T10 construct: Bought from R&D Systems; also called EPO R/Fc; Epo R/Fc chimera; not shown: Fc of the bought chimera
T10 sequence (looked up): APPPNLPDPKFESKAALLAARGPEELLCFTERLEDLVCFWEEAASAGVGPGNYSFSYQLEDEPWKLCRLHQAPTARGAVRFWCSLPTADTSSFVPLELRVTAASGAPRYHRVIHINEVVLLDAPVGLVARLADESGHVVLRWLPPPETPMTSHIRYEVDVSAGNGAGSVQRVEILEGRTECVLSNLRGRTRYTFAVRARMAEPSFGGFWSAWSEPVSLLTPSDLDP

[11] = molecular target: T11, rHuman IGF-1 sR, (IGF-1 sR), CF (R&D Systems Cat#391-GR) (human, UniProt P08069 31-932); test: as above
T11 construct: Bought from R&D Systems and called a soluble receptor; also called insulin-like growth factor-1 soluble receptor

[12] = molecular target: T12, rHuman P-Cadherin/Fc Chimera, CF (R&D Systems Cat#861-PC) (human, UniProt P22223 108-654); test: as above
T12 construct: Bought from R&D Systems; not shown: Fc of the bought chimera

[13] = molecular target: T13, rHuman EGF R/Fc Chimera, CF (R&D Systems Cat#344-ER) (human, UniProt P00533 25-645); test: as above
T13 construct: Bought from R&D Systems; also called epidermal growth factor receptor (EGF R); not shown: Fc of the bought chimera

[14] = molecular target: T14, rHuman Notch-1/Fc Chimera, CF (R&D Systems Cat#3647-TK) (human, UniProt P46531 19-526); test: as above
T14 construct: Bought from R&D Systems; not shown: Fc of the bought chimera

[15] = molecular target: T15, rHuman CD44/Fc Chimera, CF (R&D Systems Cat#3660-CD) (human, UniProt P16070 21-220); test: as above
T15 construct: Bought from R&D Systems; not shown: Fc of the bought chimera

[16] = molecular target: T16, rHuman Notch-1/Fc Chimera, CF (R&D Systems Cat#3647-TK) (human, UniProt P46531 19-526); test: Multispot ECL (MSD), antigen spotted on plate, Fab 15.6 nM; blank spot 294
T16 construct: Bought recombinant protein; Fc part of the bought chimera not given

[17] = molecular target: T17, rHuman Erythropoietin R/Fc Chimera, CF (R&D Systems Cat#963-ER) (human, UniProt P19235 25-250); test: as above
T17 construct: Bought recombinant protein; also called EPO R/Fc; Epo R; Fc part of the bought chimera not given
T17 sequence (looked up): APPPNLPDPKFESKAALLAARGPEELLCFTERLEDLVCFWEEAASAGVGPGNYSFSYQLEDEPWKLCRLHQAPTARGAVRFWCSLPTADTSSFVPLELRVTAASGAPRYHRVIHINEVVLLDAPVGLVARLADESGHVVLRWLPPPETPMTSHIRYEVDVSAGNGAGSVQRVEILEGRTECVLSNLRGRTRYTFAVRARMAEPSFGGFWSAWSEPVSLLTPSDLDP

[18] = molecular target: T18, rHuman IGF-1 sR, CF (R&D Systems Cat#391-GR) (human, UniProt P08069 31-932); test: as above
T18 construct: Bought recombinant soluble receptor; also called insulin-like growth factor-1 soluble receptor

B1: Fab VH1-46_IGHD6-6*01_IGHJ1*01 S102A/S103P/S104F (APF) & L6_IGKJ1*01 (Fab, V domains shown)
VH: QVQLVQSGAEVKKPGASVKVSCKASGYTFTSYYMHWVRQAPGQGLEWMGIINPSGGSTSYAQKFQGRVTMTRDTSTSTVYMELSSLRSEDTAVYYCAREEYAPFSAEYFQHWGQGTLVTVSS
VL: not shown
notes: Tested as a Fab made in E. coli: VH cloned in Plasmid A (CH1 constant region, His6 and Flag tags), VL in Plasmid C (kappa constant region); also called H:APF & L:wt; APF triple mutant
- ECL signal [1]: 874
- ECL signal [2]: 1210
- ECL signal [3]: 1580
- ECL signal [4]: 28900
- ECL signal [5]: 760
- ECL signal [6]: 1010

B2: Fab VH1-46_IGHD3-10*01_IGHJ4*01 & B3_IGKJ1*01 (Fab, V domains shown)
VH: QVQLVQSGAEVKKPGASVKVSCKASGYTFTSYYMHWVRQAPGQGLEWMGIINPSGGSTSYAQKFQGRVTMTRDTSTSTVYMELSSLRSEDTAVYYCAREYYYGSGSYYNDYFDYWGQGTLVTVSS
VL: not shown
notes: Tested as a Fab made in E. coli; VH was cloned into Plasmid A (CH1 constant region, His6 and Flag tags); The kappa VL was cloned into Plasmid C (kappa CL)
- ECL signal [7]: 932
- ECL signal [8]: 903
- ECL signal [9]: 1260
- ECL signal [10]: 4310
- ECL signal [11]: 426
- ECL signal [12]: 1060
- ECL signal [13]: 1070
- ECL signal [14]: 1030
- ECL signal [15]: 885

B3: Fab VH1-46_IGHD6-13*01_IGHJ4*01 & B3_IGKJ1*01 (Fab, V domains shown)
VH: QVQLVQSGAEVKKPGASVKVSCKASGYTFTSYYMHWVRQAPGQGLEWMGIINPSGGSTSYAQKFQGRVTMTRDTSTSTVYMELSSLRSEDTAVYYCAREGYSSSWYDYFDYWGQGTLVTVSS
VL: not shown
notes: Germline Fab made in E. coli; VH was cloned into Plasmid A (CH1, His6 and Flag tags) and the kappa VL into Plasmid C (kappa CL)
- ECL signal [16]: 418
- ECL signal [17]: 8360
- ECL signal [18]: 349
